Positions count from the first letter of the chain named. Blank lines part the entries; values can stand above or below the binder they belong to.
What was measured:
[1] = molecular target: T1, CCL22 labeled with Alexa Fluor 647, O00626; test: flow cytometry on cells; conditions: chain shown with the change;; parent: est. 47; read off a plot
T1 chain: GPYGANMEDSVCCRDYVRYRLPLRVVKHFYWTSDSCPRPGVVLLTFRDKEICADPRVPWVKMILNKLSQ

[2] = molecular target: CCL2 labeled with Alexa Fluor 647, P13500; test: flow cytometry on cells; conditions: read off a plot
CCL2 labeled with Alexa Fluor 647, P13500, sequence (P13500 24-99): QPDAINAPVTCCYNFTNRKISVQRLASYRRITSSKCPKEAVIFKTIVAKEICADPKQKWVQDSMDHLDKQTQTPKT

[3] = chain shown with the change;, parent: est. 195

B1: HA-ACKR2 (epitope-tagged human ACKR2, wild type), O00590 YYYDY to FFYDF (first, second and fourth tyrosines of the motif to F) (protein)
chain: MAATASPQPLATEDADSENSSFFFYDFLDEVAFMLCRKDAVVSFGKVFLPVFYSLIFVLGLSGNLLLLMVLLRYVPRRRMVEIYLLNLAISNLLFLVTLPFWGISVAWHWVFGSFLCKMVSTLYTINFYSGIFFISCMSLDKYLEIVHAQPYHRLRTRAKSLLLATIVWAVSLAVSIPDMVFVQTHENPKGVWNCHADFGGHGTIWKLFLRFQQNLLGFLLPLLAMIFFYSRIGCVLVRLRPAGQGRALKIAAALVVAFFVLWFPYNLTLFLHTLLDLQVFGNCEVSQHLDYALQVTESIAFLHCCFSPILYAFSSHRFRQYLKAFLAAVLGWHLAPGTAQASLSSCSESSILTAQEEMTGMNDLGERQSENYPNKEDVGNKSA
response [1]: 18 MFI

B5: HA-ACKR2 (epitope-tagged human ACKR2, wild type), O00590 YYYDY to FYFDF (first, third and fourth tyrosines of the motif to F) (protein)
chain: B1 chain with F24Y, Y25F
response [1]: 19 MFI

B6: HA-ACKR2 (epitope-tagged human ACKR2, wild type), O00590 YYYDY to YFFDF (second, third and fourth tyrosines of the motif to F) (protein)
chain: B1 chain with F23Y, Y25F
response [1]: 22 MFI

B7: HA-ACKR2 (epitope-tagged human ACKR2, wild type), O00590 YYYDY to FYYDY (first tyrosine of the motif to F) (protein)
chain: B1 chain with F24Y, F27Y
response [2, 3]: 180 MFI

B8: HA-ACKR2 (epitope-tagged human ACKR2, wild type), O00590 YYYDY to FFFDY (first, second and third tyrosines of the motif to F) (protein)
chain: B1 chain with Y25F, F27Y
response [1]: 24 MFI

B9: HA-ACKR2 (epitope-tagged human ACKR2, wild type), O00590 YYYDY to FFFDF (all four tyrosines of the motif to F) (protein)
chain: B1 chain with Y25F
response [1]: 7.5 MFI | response ([2]; chain shown with the change, 10 µg/ml Alexa-CCL2, parent: est. 28): 3 MFI | response ([2]; chain shown with the change, 20 µg/ml Alexa-CCL2, parent: est. 37): 3 MFI | response ([2]; chain shown with the change, 30 µg/ml Alexa-CCL2, parent: est. 54): 6 MFI | response [2, 3]: 26 MFI

More lines, now with the values ahead:

response [2, 3]: 180 MFI
B2: HA-ACKR2 (epitope-tagged human ACKR2, wild type), O00590 YYYDY to YYFDY (third tyrosine of the motif to F) (protein)
chain: B1 chain with F23Y, F24Y, Y25F, F27Y

response [1]: 71 MFI
B3: HA-ACKR2 (epitope-tagged human ACKR2, wild type), O00590 YYYDY to YFYDY (second tyrosine of the motif to F) (protein)
chain: B1 chain with F23Y, F27Y

response [2, 3]: 180 MFI
B4: HA-ACKR2 (epitope-tagged human ACKR2, wild type), O00590 YYYDY to YYYDF (fourth tyrosine of the motif to F) (protein)
chain: B1 chain with F23Y, F24Y
